{"source": "paper PMC12002099", "about": "“Recombinant Production and Characterization of Six Ene‐reductases from Penicillium steckii” (Chembiochem, 2025)", "molecules": {"B1": {"name": "PsOYE2 (Penicillium steckii) (protein)", "chain": "MTWPDVPIAAAPGISYFTPAQSPPAGTARNPQTSGKAIPKLFQPLTIRGHTFQNRLGVAPMCQYSADDGHLTPWHMAHYGGIAQRGPGMIIIEATGVVPEGRITPGCVGLWKDSQIAPLKQVVEFAHSQGQKIGIQLAHAGRKASTVPPWLGGVTATNAVGGWTENVKGPSAIPFAEGEIVPKAMTKEDIEEVKTAWVAAVERAVAAGVDFIEIHNAHGYLLSSFLSPSSNQRTDDYGGSFENRIRLSLEISQLTRDTVGPNMPVFLRVSATDWLEKSMPEEKGWKLEDTVEFSRALAAQGAIDLIDISTGGVHAAQKVTSGVGFQVPFAKAVKEAVGQKMLVSAVGTINSGNLAEKILNEDDVDVILVGRAFQRDSGLAWAFAKDLDVEIAMAGQIRWGFTSFRNASEYIQPNSMKASIFD"}, "B2": {"name": "PsOYE1 (Penicillium steckii) (protein)", "chain": "MTIQYISGEESGLFRPLTISNGSLTLRHRIIHAPLTRNRGVPANPISTPENPNRIWVPGDLIAEYYGQRATEGGLLISEGIPPSLESNGMPGVPGLFTPEQANGWKKVVDAVHAKGGFIFCQLWHAGRATIPQMTGSPAVCPSASVWDSPKECYSHPPVGSTEPVPYANHPPIELSVPHIKQTIQDYCNAAKTAMEIGFDGVEIHGGNGYLPEQFLSSNINKRTDDYGGSPEKRCKFVFELMDEVAKTIGEQNLSIRLSPFGLFNQARGEQRLETWTHLCEGLKKAHPALSYVSFVEPRFEQIFSEEEKDTFLQSWGLKDVTLDRFRKIFGETPFFSAGGFDDKNSWNIVESGKYDGLLFGRYFISNPDLVHRLAKGLPLAPYDRTRFYGPFEDNVFHYTDYPTIDKQ"}, "B3": {"name": "PsOYE3 (Penicillium steckii) (protein)", "chain": "MAQSNHPDIANKPAEGISYYTPAQVPPAGSAAIPQSDGAQPPKLFTPFQVRGVTFHNRIGLSPLCQYSADDGHMTDWHMAHLGGIAQRGPGFLMVEATAVQANGRITPQDHGLWKDSQIEPLRRVVEFIHSQNQVIGVQLAHAGRKASTVAPWLSSADTATEAVGGWPENVKGPSDIPFHDKFPVPKALTLNEIEQFKQDWVSALKRAVKAGADFVEIHNAHGYLLMSFLSPASNKRTDQYGGSFENRIRLTMEIAQLTRDNIPKDMPVFLRVSATDWLEEAMPNEPSWRIEDTVQLAKALADSGNIDVLDVSSGGNHRAQHIHAKAAFQAPFAIEVKKAVGDRLQVGSVGMIDSAQLASSLLENDGLDFVLVGRGFQKNPGLVWAWAEELDVEISMANQIRWGFSSRGGGVYLKKRHGKM"}, "B4": {"name": "PsOYE6 (Penicillium steckii) (protein)", "chain": "MSSKLFNPMQVGRMQLSTRLAMAPMTRFRVDDDHNPLPIVKDYYAQRGSIPGTLLITEATIISPQAGGYKNVPGIYTDSQIAAWKEITDAVHAKGSYIYLQLWALGRVADPNYLRELGNYDLVSASDIPAGEGAPTPRPLSESDIQSFVKDYAQAAKNAVAAGFDGVEIHAANGYLIDQFIQDNSNQRNDSYGGSVENRARFALEVTQAVVDAIGADRTGIRYSPFSTFQGMRMADPIPQFSYLAKETAKFKLAFTHLVEPRIAGNADVEETPDELEFFLKEYGNATPVIIAGGYKAESAIQAVDEKYKEFDTVIGIGRPWTSNPDLPFRIKANVPLVPYDRDTFYNPKDPKGYIDWAFSPEFKATQVGA"}, "B5": {"name": "PsOYE5 (Penicillium steckii) (protein)", "chain": "MSSSAATRFECADVDPSVLGQPLQFTFSGRSAPNRFLKGAMSERLASFSYSDLSARGIPSPTLIQAYKGWGESQIGINLTGNVMIDPGHLEAAGNPVIPRNAEFSGERFERFKELATAGKENGMLIIAQVGHPGRQTPQYLQPNPISASDVQVQGEPMGMKFAQPRAATHEDIANIIDGFAHAAEYLDKAGFDGIELHGAHGYLLSQFLSSATNLRTDQYGGDLKNRMRLILEVRDEIAKRVRKDFVVGIKINSVEFQDKGFQPDDAKELCRALEEHAFDFVELSGGTYEKSPFAEQKRPSTIERESLFLDFARLIVPGLTKTKTYVTGGFKTVEAMVKALETVDGVGLGRPLCQEPNLCAHILSGKVKGAIDQKIDMYNFGATAGAAGVQIQQMGNHLQPIDLSQEENVGKLFAALGPWLAARQKDVELYRSPAVADYVVPYSKTSML"}}, "key": {"[1]": {"target": "PsOYE2, Class III OYE-type ene-reductase from Penicillium steckii (Penicillium steckii)", "experiment": "crystal structure; PsOYE2 without any tag, FMN bound; monoclinic space group P2(1), four dimers in the asymmetric unit; 2.3 Å; interface analysed with PISA"}, "[2]": {"target": "PsOYE2, Class III OYE-type ene-reductase from Penicillium steckii (Penicillium steckii)", "experiment": "SEC; PsOYE2 in solution; conditions not shown"}, "[3]": {"target": "PsOYE2, Class III OYE-type ene-reductase from Penicillium steckii (Penicillium steckii)", "experiment": "DLS; PsOYE2 in solution; conditions not shown"}, "[4]": {"tested_on": "O=C1C=CC(=O)C=C1", "experiment": "steady-state kinetics, NADPH consumption, Michaelis-Menten fit", "assay_type": "biochemical, Penicillium steckii", "details": "co-substrate NADPH", "from_the_text": "steady-state kinetics, NADPH consumption, Michaelis-Menten fit on PsOYE4"}, "[5]": {"substrate": "O=C1C=CC(=O)C=C1", "experiment": "steady-state kinetics, NADPH consumption, Michaelis-Menten fit", "assay_type": "biochemical, Penicillium steckii", "details": "co-substrate NADPH", "from_the_text": "(§1) steady-state kinetics, NADPH consumption, Michaelis-Menten fit on PsOYE2", "remark": "listed apart in the source"}, "[6]": {"substrate": "NC(=O)C1=CN([C@@H]2O[C@H](COP(=O)(O)OP(=O)(O)OC[C@H]3O[C@@H](n4cnc5c(N)ncnc54)[C@H](OP(=O)(O)O)[C@@H]3O)[C@@H](O)[C@H]2O)C=CC1", "experiment": "steady-state kinetics, NADPH consumption, Michaelis-Menten fit", "assay_type": "biochemical, Penicillium steckii", "details": "co-substrate p-benzoquinone", "from_the_text": "as §1"}, "[7]": {"substrate": "O=C1C=CC(=O)C=C1", "experiment": "steady-state kinetics, NADPH consumption, Michaelis-Menten fit", "assay_type": "biochemical, Penicillium steckii", "details": "co-substrate NADPH", "from_the_text": "(§2) steady-state kinetics, NADPH consumption, Michaelis-Menten fit on PsOYE1", "remark": "listed apart in the source"}, "[8]": {"substrate": "NC(=O)C1=CN([C@@H]2O[C@H](COP(=O)(O)OP(=O)(O)OC[C@H]3O[C@@H](n4cnc5c(N)ncnc54)[C@H](OP(=O)(O)O)[C@@H]3O)[C@@H](O)[C@H]2O)C=CC1", "experiment": "steady-state kinetics, NADPH consumption, Michaelis-Menten fit", "assay_type": "biochemical, Penicillium steckii", "details": "co-substrate p-benzoquinone", "from_the_text": "as §2", "remark": "listed apart in the source"}, "[9]": {"substrate": "O=C1C=CC(=O)C=C1", "experiment": "steady-state kinetics, NADPH consumption, Michaelis-Menten fit", "assay_type": "biochemical, Penicillium steckii", "details": "co-substrate NADPH", "from_the_text": "(§3) steady-state kinetics, NADPH consumption, Michaelis-Menten fit on PsOYE3", "remark": "listed apart in the source"}, "[10]": {"substrate": "NC(=O)C1=CN([C@@H]2O[C@H](COP(=O)(O)OP(=O)(O)OC[C@H]3O[C@@H](n4cnc5c(N)ncnc54)[C@H](OP(=O)(O)O)[C@@H]3O)[C@@H](O)[C@H]2O)C=CC1", "experiment": "steady-state kinetics, NADPH consumption, Michaelis-Menten fit", "assay_type": "biochemical, Penicillium steckii", "details": "co-substrate p-benzoquinone", "from_the_text": "as §3", "remark": "listed apart in the source"}, "[11]": {"substrate": "O=C1C=CC(=O)C=C1", "experiment": "steady-state kinetics, NADPH consumption, Michaelis-Menten fit", "assay_type": "biochemical, Penicillium steckii", "details": "co-substrate NADPH", "from_the_text": "(§4) steady-state kinetics, NADPH consumption, Michaelis-Menten fit on PsOYE6", "remark": "listed apart in the source"}, "[12]": {"substrate": "NC(=O)C1=CN([C@@H]2O[C@H](COP(=O)(O)OP(=O)(O)OC[C@H]3O[C@@H](n4cnc5c(N)ncnc54)[C@H](OP(=O)(O)O)[C@@H]3O)[C@@H](O)[C@H]2O)C=CC1", "experiment": "steady-state kinetics, NADPH consumption, Michaelis-Menten fit", "assay_type": "biochemical, Penicillium steckii", "details": "co-substrate p-benzoquinone", "from_the_text": "as §4", "remark": "listed apart in the source"}, "[13]": {"substrate": "O=C1C=CC(=O)C=C1", "experiment": "steady-state kinetics, NADPH consumption, Michaelis-Menten fit", "assay_type": "biochemical, Penicillium steckii", "details": "co-substrate NADPH", "from_the_text": "(§5) steady-state kinetics, NADPH consumption, Michaelis-Menten fit on PsOYE5", "remark": "listed apart in the source"}, "[14]": {"substrate": "NC(=O)C1=CN([C@@H]2O[C@H](COP(=O)(O)OP(=O)(O)OC[C@H]3O[C@@H](n4cnc5c(N)ncnc54)[C@H](OP(=O)(O)O)[C@@H]3O)[C@@H](O)[C@H]2O)C=CC1", "experiment": "steady-state kinetics, NADPH consumption, Michaelis-Menten fit", "assay_type": "biochemical, Penicillium steckii", "details": "co-substrate p-benzoquinone", "from_the_text": "as §5", "remark": "listed apart in the source"}}}
{"molecule": "PsOYE2, Class III OYE-type ene-reductase from Penicillium steckii (enzyme)", "values": [{"measurement": "stoichiometry N", "setting": "[1]", "value": 2}, {"measurement": "stoichiometry N", "setting": "[2]", "value": 2}, {"measurement": "stoichiometry N", "setting": "[3]", "value": 2}]}
{"molecule": "PsOYE4 (Penicillium steckii)", "values": [{"measurement": "Km", "setting": "[4]", "value": "1100 ± 100", "unit": "µM"}, {"measurement": "kcat", "setting": "[4]", "value": "28 ± 1", "unit": "s⁻¹"}, {"measurement": "kcat/Km", "setting": "[4]", "value": 26000, "unit": "M⁻¹ s⁻¹"}]}
{"molecule": "B1", "values": [{"measurement": "Km", "setting": "[5]", "value": "2 ± 1", "unit": "µM"}, {"measurement": "Km", "setting": "[6]", "value": "500 ± 100", "unit": "µM"}, {"measurement": "kcat", "setting": "[6]", "value": "70 ± 10", "unit": "s⁻¹"}, {"measurement": "kcat/Km", "setting": "[6]", "value": 140000, "unit": "M⁻¹ s⁻¹"}]}
{"molecule": "B2", "values": [{"measurement": "Km", "setting": "[7]", "value": "700 ± 100", "unit": "µM"}, {"measurement": "kcat", "setting": "[7]", "value": "23.4 ± 1", "unit": "s⁻¹"}, {"measurement": "kcat/Km", "setting": "[7]", "value": 33000, "unit": "M⁻¹ s⁻¹"}, {"measurement": "Km", "setting": "[8]", "value": "300 ± 100", "unit": "µM"}, {"measurement": "kcat", "setting": "[8]", "value": "63 ± 8", "unit": "s⁻¹"}, {"measurement": "kcat/Km", "setting": "[8]", "value": 200000, "unit": "M⁻¹ s⁻¹"}]}
{"molecule": "B3", "values": [{"measurement": "Km", "setting": "[9]", "value": "8 ± 1", "unit": "µM"}, {"measurement": "kcat", "setting": "[9]", "value": "19.6 ± 1.3", "unit": "s⁻¹"}, {"measurement": "kcat/Km", "setting": "[9]", "value": "2.45e+06", "unit": "M⁻¹ s⁻¹"}, {"measurement": "Km", "setting": "[10]", "value": "200 ± 0", "unit": "µM"}, {"measurement": "kcat", "setting": "[10]", "value": "64 ± 4", "unit": "s⁻¹"}, {"measurement": "kcat/Km", "setting": "[10]", "value": 350000, "unit": "M⁻¹ s⁻¹"}]}
{"molecule": "B4", "values": [{"measurement": "Km", "setting": "[11]", "value": "1100 ± 100", "unit": "µM"}, {"measurement": "kcat", "setting": "[11]", "value": "25.5 ± 0.9", "unit": "s⁻¹"}, {"measurement": "kcat/Km", "setting": "[11]", "value": 23000, "unit": "M⁻¹ s⁻¹"}, {"measurement": "Km", "setting": "[12]", "value": "300 ± 100", "unit": "µM"}, {"measurement": "kcat", "setting": "[12]", "value": "53 ± 7", "unit": "s⁻¹"}, {"measurement": "kcat/Km", "setting": "[12]", "value": 170000, "unit": "M⁻¹ s⁻¹"}]}
{"molecule": "B5", "values": [{"measurement": "Km", "setting": "[13]", "value": "900 ± 100", "unit": "µM"}, {"measurement": "kcat", "setting": "[13]", "value": "23.2 ± 0.9", "unit": "s⁻¹"}, {"measurement": "kcat/Km", "setting": "[13]", "value": 26000, "unit": "M⁻¹ s⁻¹"}, {"measurement": "Km", "setting": "[14]", "value": "500 ± 200", "unit": "µM"}, {"measurement": "kcat", "setting": "[14]", "value": "70 ± 14", "unit": "s⁻¹"}, {"measurement": "kcat/Km", "setting": "[14]", "value": 150000, "unit": "M⁻¹ s⁻¹"}]}
